Data as given in patent publication US20260297172 (published 2026).

T1: S100A8/A9 (human, UniProt P05109)
T1 chain 1: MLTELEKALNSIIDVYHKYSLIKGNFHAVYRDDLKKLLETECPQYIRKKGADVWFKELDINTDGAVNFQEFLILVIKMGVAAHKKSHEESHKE
T1 chain 2: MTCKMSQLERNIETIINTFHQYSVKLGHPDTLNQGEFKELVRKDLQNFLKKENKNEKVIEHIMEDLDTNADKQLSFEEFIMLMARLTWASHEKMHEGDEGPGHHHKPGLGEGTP

T2: S100A9 (human, UniProt P06702)
T2 chain: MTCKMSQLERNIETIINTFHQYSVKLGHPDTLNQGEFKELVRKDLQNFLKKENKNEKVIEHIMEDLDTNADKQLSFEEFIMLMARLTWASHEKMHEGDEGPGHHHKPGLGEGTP

T3: S100A8 (human, UniProt P05109)
T3 chain: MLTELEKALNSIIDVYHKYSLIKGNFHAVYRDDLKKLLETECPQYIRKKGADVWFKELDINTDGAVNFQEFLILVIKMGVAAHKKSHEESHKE

B1: 8H6-mIgG2a (antibody, V domains shown)
VH: CQSLEESGGDLVKPEGSLTLTCKASGFSFSSGCWVCWVRQAPGKGLEWIACIYTGDGDTYYANWARGRFTVSRTSSTTVTLQLTSLTAADTATYFCASPQPGDITYLGFWGPGTLVTVSS
VL: DIVMTQTPASVSEPVGGTVTIKCQASQNINSYLSWYQQRPGQPPKLLISLASDLASGVPSRFKGSESGTDYTLTISDLECADAATYYCQGYFADSGSSGRSWAFGGGTEVVVQG
B2: 6C8-mIgG2a (antibody, V domains shown)
VH: QEQLVESGGGLVTLGGSLKLSCKASGIDFSIYGISWVRQAPGKGLEWIAYIYPDYSTTDYASWVNGRFTISFDNAQNTVFLEMTSLTAADTATYFCARRYSGYYGLWGPGTLVTVSS
VL: ALVMTQTPSSVSAPVGGTVTIKCQASQSISSYLAWYQQKPGQRPKLLIYGASSLESGVPSRFKGSGSGTEYTLTISDLECDDAATYYCQGAHAGSSADAFGGGTEVVVKG
B3: 8H6-HC (antibody, V domains shown)
VH: CQSLEESGGDLVKPEGSLTLTCKASGFSFSSGCWVCWVRQAPGKGLEWIACIYTGDGDTYYANWARGRFTVSRTSSTTVTLQLTSLTAADTATYFCASPQPGDITYLGFWGPGTLVTVSS
VL: DIVMTQTPASVSEPVGGTVTIKCQASQNINSYLSWYQQRPGQPPKLLISLASDLASGVPSRFKGSESGTDYTLTISDLECADAATYYCQGYFADSGSSGRSWAFGGGTEVVVQG
B4: ROIS-2 (antibody, V domains shown)
VH: NVQLVESGGGLIHPGGSLSLSCKASGFSFSSGCWVCWVRQAPGKGLEWVACIYTGDGDTYYADSVKGRFTISRTSSKTTVYLQMNSLRAEDTAVYYCASPQPGDITYLGFWGQGTLVTVSS
VL: DIHMTQSPSSLSASVGDTVTITCQASQNINSYLSWYQQKPGKAPKLLISLASDLASGVPSRFSGSESGTDYTLTISSLQPEDFATYYCQGYFADSGSSGRSWAFGQGTKVEIKR
B5: ROIS-1 (antibody, V domains shown)
VH: NVQLVESGGGLIHPGGSLSLSCKASGFSFSSGCWVCWVRQAPGKGLEWVACIYTGDGDTYYADSVRGRFTISRTSSKTTVYLQMNSLRAEDTAVYYCASPQPGDITYLGFWGQGTLVTVSS
VL: DIHMTQSPSSLSASVGDTVTITCQASQNINSYLSWYQQEPGKAPKLLISLASDLASGVPSRFSGSESGTDYTLTISSLQPEDFATYYCQGYFADSGSSGRSWAFGQGTKVEIKR
B6: ROIS-5 (antibody, V domains shown)
VH: QVSLEESGGDLVQPGGSLRLACVASGFSFSSGCWVCWVRQAPGKGLEWVSCIYTGDGDTYYANSVRGRFTVSRRNSTTSVYLQMNSLRADDTALYFCASPQPGDITYLGFWGPGTLVTVSS
VL: DIHMTQSPSSLSASVGDTVTITCQASQNINSYLSWYQQKPGKAPKLLISLASDLASGVPSRFSGSESGTDYTLTISSLQPEDFATYYCQGYFADSGSSGRSWAFGQGTKVEIKR
B7: ROIS-3 (antibody, V domains shown)
VH: QVSLEESGGDLVQPGGSLRLACVASGFSFSSGCWVCWVRQAPGKGLEWVSCIYTGDGDTYYANSVRGRFTVSRQNSTTSVYLQMNSLRADDTALYFCASPQPGDITYLGFWGPGTLVTVSS
VL: DIHMTQSPSSLSASVGDTVTITCQASQNINSYLSWYQQKPGKAPKLLISLASDLASGVPSRFSGSESGTDYTLTISSLQPEDFATYYCQGYFADSGSSGRSWAFGQGTKVEIKR
B8: ROIS-4 (antibody, V domains shown)
VH: QVSLEESGGDLVQPGGSLRLACVASGFSFSSGCWVCWVRQAPGKGLEWVSCIYTGDGDTYYANSVRGRFTVSRKNSTTSVYLQMNSLRADDTALYFCASPQPGDITYLGFWGPGTLVTVSS
VL: DIHMTQSPSSLSASVGDTVTITCQASQNINSYLSWYQQKPGKAPKLLISLASDLASGVPSRFSGSESGTDYTLTISSLQPEDFATYYCQGYFADSGSSGRSWAFGQGTKVEIKR
B9: 8H6 (antibody, V domains shown)
VH: CQSLEESGGDLVKPEGSLTLTCKASGFSFSSGCWVCWVRQAPGKGLEWIACIYTGDGDTYYANWARGRFTVSRTSSTTVTLQLTSLTAADTATYFCASPQPGDITYLGFWGPGTLVTVSS
VL: DIVMTQTPASVSEPVGGTVTIKCQASQNINSYLSWYQQRPGQPPKLLISLASDLASGVPSRFKGSESGTDYTLTISDLECADAATYYCQGYFADSGSSGRSWAFGGGTEVVVQG
B10: 14G9 (antibody, V domains shown)
VH: QEQLVESGGGLVQPEGSLTLTCTASGFSFSSDYYMCWVRQAPGKGLEWIACIGGGYGGSPYYATWAKGRFTISKTSSTAVTLQMTSLTAADTATHFCARGVPGSSCFFDLWGPGTLVTVSS
VL: DVAMTQTPASVSEPVGGTVTIKCQASQSIGSSLAWYQQKSGQPPKLLIYDAFDLASGVSSRFKGSGSGTEYTLTISDLECADAATYFCLGGYYDANTFGGGTEVVVKG
B11: 6C8 (antibody, V domains shown)
VH: QEQLVESGGGLVTLGGSLKLSCKASGIDFSIYGISWVRQAPGKGLEWIAYIYPDYSTTDYASWVNGRFTISFDNAQNTVFLEMTSLTAADTATYFCARRYSGYYGLWGPGTLVTVSS
VL: ALVMTQTPSSVSAPVGGTVTIKCQASQSISSYLAWYQQKPGQRPKLLIYGASSLESGVPSRFKGSGSGTEYTLTISDLECDDAATYYCQGAHAGSSADAFGGGTEVVVKG

Molecular target: T1, S100A8/A9
Test: competition ELISA, blocking CD69 binding

| Binder | IC50 [µg/mL] |
| --- | --- |
| B1 | ~1.25 |
| B2 | ~2.5 |

Molecular target: T1, S100A8/A9
Test: BLI

| Binder | Kd [nM] |
| --- | --- |
| B3 | 1.37 |
| B4 | 0.608 |
| B5 | 0.789 |
| B6 | 0.623 |
| B7 | 0.0477 |
| B8 | 1.76 |

Molecular target: T2, S100A9
Test: ELISA

| Binder | binding result |
| --- | --- |
| B9 | no binding |
| B10 | no binding |

Molecular target: T3, S100A8
Test: ELISA

| Binder | binding result |
| --- | --- |
| B11 | no binding |
| B10 | no binding |
